Measurements from PMC4989506.

Key:
[1] = target: recombinant albicin (Anopheles albimanus complement inhibitor) (Anopheles albimanus); experiment: SPR
C3b (human) = C3b (human) (UniProt P01024); experiment: SPR

properdin, sequence (P27918 28-469): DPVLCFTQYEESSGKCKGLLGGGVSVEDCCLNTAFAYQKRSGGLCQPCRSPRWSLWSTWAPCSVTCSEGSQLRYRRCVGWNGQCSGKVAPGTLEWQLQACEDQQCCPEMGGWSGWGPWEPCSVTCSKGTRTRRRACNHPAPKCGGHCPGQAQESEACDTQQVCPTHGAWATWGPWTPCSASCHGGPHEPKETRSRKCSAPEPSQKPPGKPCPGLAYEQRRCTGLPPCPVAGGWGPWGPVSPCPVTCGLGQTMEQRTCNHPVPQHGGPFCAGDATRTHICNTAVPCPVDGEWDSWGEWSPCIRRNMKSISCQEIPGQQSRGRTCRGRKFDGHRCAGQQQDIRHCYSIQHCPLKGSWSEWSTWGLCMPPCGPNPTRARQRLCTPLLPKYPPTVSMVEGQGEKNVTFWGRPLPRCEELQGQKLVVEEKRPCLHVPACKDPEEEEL
recombinant albicin (Anopheles albimanus complement inhibitor) (Anopheles albimanus), sequence (A0A1Y9G8D0 27-142, tags left off): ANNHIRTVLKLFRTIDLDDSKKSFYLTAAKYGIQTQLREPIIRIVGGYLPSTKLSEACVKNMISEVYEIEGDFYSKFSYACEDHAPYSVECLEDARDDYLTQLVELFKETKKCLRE

## properdin (from UniProt P27918 28-469) (natural protein)
[1]
  K1/2 (concentration at half-saturation): 11.6 nM
C3b (human)
  response of properdin coated on the C3b surface: 1200 RU
